Source: publication PMC6971037, “Molecular basis for histidine N3-specific methylation of actin H73 by SETD3” (Cell Discovery, 2020)

T1: SETD3 residues 20–494 (as labelled for the ITC titrations) (human, UniProt Q86TU7 20-494)
T1 construct: also called SETD3_(20–494)
T1 sequence (looked up): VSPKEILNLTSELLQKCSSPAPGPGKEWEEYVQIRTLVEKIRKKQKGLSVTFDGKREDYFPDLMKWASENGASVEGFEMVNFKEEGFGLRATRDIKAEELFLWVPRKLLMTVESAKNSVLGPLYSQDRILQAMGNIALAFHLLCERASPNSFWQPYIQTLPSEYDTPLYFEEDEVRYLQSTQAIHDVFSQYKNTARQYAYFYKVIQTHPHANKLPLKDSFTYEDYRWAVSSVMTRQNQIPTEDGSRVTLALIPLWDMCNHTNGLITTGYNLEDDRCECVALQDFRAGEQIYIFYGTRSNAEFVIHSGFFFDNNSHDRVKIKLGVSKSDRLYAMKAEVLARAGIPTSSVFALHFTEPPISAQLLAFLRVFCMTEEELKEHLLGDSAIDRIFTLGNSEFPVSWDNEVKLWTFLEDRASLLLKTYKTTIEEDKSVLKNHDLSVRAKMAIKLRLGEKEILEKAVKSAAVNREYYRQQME


What was measured:
[1] = target: T1, SETD3 residues 20–494 (as labelled for …); assay: ITC; SETD3 titrated with actin peptide in the presence of SFG (sinefungin); conditions: both partners purified
[2] = target: T1, SETD3 residues 20–494 (as labelled for …); assay: ITC; SETD3 titrated with actin peptide in the presence of SAH; conditions: both partners purified

| Binder | Kd [1] [nM] | Kd [2] [nM] |
| --- | --- | --- |
| SKRGILTLKYPIEHGIVTNWDD (peptide, UniProt P60709 60-81, looked up, β-actin, residues 60-81; residues 66-81 were built in the structure; also called wild-type actin peptide) [β-actin peptide (60–81)] | 5010 | 150 |
| SKRGILTLKYPIEAGIVTNWDD (peptide, UniProt P60709 60-81, looked up, β-actin peptide with H73A; The limits 60-81 are those of the wild-type peptide; also called H73A actin peptide; H73A mutant peptide) [H73A mutant actin peptide] | 1000 | 810 |
